The values below come from article PMC12120876.

This experiment has as its target nLUC‐TaWUS‐like‐5D (wheat (Triticum aestivum)). Kind of experiment: split reporter.

For the substance SnRK1‐4B‐cLUC (natural protein), the luminescence signal, fold over the other three pairs of co-infiltration samples came out at 5 fold.
